These results are taken from article PMC10760096.

The experiment concerns the target CH848-d949 DE3 design SOSIP Env (HIV-1). The experiment in a line: SPR.

B1: DH270 lineage intermediate I5.6 Fab (Fab, V domains shown)
VH: QVQLVQSGAEVKKPGASVKVSCKASGYTFTDYYIHWVRQAPGQGLEWMGWINPNTGRTNSAQKFQGRVTMTRDTSISTAYMELSRLRSDDTAVYYCARGGWIGLYYDSSGYPNFDYWGQGTLVTVSS
VL: QSALTQPASVSGSPGQSITISCTGTSYDVGSYNLVSWYQQHPGKAPKLMIYEVSKRPSGVSNRFSGSKSGNTASLTISGLQAEDEADYYCCSYAGSSTVVFGGGTKLTVL
Regarding B1, the fold change in association rate (ka) against unmutated CH848-d949 turned out to be 45 fold.
